Experimental data as given in patent publication US20140274782A1, “AFFINITY REAGENTS AND METHODS FOR DETECTION, PURIFICATION, AND PROTEOMIC ANALYSIS OF METHYLATED PROTEINS” (The Board of Trustees of the Leland Stanford Junior …, priority 2013, published 2014).

T1: G9a and GLP (Homo sapiens, UniProt Q96KQ7+Q9H9B1)
T1 sequence (Q96KQ7 2-1210 limits assumed): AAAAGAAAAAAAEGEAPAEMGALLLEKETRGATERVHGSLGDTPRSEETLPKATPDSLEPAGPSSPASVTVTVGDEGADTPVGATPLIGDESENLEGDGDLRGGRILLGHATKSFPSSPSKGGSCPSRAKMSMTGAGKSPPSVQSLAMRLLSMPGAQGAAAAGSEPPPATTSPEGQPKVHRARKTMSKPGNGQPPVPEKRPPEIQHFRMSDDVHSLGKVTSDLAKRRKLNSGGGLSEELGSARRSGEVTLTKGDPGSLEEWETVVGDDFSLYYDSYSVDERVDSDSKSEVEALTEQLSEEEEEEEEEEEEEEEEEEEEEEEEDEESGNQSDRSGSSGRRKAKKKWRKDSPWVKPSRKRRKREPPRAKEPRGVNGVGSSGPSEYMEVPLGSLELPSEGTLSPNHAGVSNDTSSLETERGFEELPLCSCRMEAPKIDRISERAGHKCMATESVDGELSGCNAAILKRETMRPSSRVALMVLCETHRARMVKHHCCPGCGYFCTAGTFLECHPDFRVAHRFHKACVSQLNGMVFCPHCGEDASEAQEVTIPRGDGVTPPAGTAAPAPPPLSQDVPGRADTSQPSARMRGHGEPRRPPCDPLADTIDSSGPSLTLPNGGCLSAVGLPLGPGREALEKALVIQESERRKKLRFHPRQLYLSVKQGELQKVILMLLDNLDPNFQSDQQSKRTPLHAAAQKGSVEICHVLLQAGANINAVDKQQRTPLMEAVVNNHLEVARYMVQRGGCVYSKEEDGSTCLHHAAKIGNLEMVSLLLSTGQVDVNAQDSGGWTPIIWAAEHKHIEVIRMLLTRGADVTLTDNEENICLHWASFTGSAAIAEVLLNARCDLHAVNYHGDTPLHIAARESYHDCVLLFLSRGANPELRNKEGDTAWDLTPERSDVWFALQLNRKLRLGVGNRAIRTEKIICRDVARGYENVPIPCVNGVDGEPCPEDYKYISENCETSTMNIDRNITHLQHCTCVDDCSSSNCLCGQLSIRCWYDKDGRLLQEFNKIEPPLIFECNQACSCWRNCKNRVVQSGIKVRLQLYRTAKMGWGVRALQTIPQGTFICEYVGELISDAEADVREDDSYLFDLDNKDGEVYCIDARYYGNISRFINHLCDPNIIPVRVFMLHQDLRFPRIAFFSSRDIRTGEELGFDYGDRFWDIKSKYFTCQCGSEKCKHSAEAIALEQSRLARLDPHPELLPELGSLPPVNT
T1 sequence (Q9H9B1 2-1298 limits assumed): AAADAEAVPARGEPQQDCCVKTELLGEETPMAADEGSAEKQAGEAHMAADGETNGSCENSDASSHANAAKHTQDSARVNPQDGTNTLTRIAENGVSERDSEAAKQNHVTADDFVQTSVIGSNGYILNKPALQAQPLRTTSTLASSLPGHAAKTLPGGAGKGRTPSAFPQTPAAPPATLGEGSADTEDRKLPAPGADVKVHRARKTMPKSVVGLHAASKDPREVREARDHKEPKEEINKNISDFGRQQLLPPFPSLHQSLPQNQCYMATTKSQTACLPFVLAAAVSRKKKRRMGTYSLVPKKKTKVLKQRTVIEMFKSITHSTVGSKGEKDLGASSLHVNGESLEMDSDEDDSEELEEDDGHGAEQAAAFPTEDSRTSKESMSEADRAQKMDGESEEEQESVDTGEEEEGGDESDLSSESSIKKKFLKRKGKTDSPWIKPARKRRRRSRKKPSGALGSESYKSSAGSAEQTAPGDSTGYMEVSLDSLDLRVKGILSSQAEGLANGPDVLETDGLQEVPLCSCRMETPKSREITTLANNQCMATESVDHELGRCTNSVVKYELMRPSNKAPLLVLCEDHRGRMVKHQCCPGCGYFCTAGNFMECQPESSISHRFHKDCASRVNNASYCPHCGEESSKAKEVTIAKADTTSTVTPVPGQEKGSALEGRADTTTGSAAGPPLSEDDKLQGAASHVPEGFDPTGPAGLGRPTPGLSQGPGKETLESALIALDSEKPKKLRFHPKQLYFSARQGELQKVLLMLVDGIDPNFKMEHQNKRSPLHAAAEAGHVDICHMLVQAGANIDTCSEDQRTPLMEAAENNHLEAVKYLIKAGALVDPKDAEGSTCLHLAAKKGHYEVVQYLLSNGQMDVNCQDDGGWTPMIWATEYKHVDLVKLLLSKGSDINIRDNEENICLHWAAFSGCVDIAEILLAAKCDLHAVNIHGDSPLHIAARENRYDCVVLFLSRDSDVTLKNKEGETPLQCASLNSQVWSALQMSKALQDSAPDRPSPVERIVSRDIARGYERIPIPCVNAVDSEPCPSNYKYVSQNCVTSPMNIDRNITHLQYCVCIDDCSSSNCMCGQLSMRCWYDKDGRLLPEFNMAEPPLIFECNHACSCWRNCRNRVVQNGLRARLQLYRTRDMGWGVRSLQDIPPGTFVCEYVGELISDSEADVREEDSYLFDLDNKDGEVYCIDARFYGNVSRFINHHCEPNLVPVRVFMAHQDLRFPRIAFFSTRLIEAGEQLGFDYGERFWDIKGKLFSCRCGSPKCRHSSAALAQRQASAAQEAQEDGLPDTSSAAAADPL


Columns and labels:
[1] = target: T1, G9a and GLP; experiment: Triple SILAC pull-down after UNC0638 treatment of 293T cells, DMSO/UNC0638 ratio of protein captured by 3×MBT; assay type: cell-based; parameters: cells were treated for 24 hours with UNC0638 at 2.5 μM or DMSO vehicle control; endogenous in cells; host or cells: HEK 293T; conditions: for Relative to UNC0638 UNC Heavy / Relative to UNC0638 UNC Light: SILAC ratio DMSO/UNC0638 of protein pulled down with 3xMBT; for Relative to UNC0638 UNC Heavy: UNC0638 in heavy SILAC media; for Relative to UNC0638 UNC Light: UNC0638 in light SILAC media; for Relative to UNC0638 Average: average of UNC Light and UNC Heavy experiments;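 on all read-outs here: mass spectrometry (Q-Exactive) SILAC quantitation, DMSO/UNC0638 ratio computed after subtracting 3×MBTD355N mutant pull-down background, only proteins with at least twofold 3×MBT over mutant signal considered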
[2] = tested on: 3×MBT domain of L3MBTL1; experiment: Triple SILAC pull-down, 3xMBT/3xMBTD355N ratio (cytoplasmic, nuclear and chromatin fractions of 293T cells); assay type: binding, human; conditions: SILAC ratio, pull-down 3xMBT vs 3xMBTD355N; for 3xMBT/D355N UNC Heavy: experiment with UNC0638 in heavy SILAC media; for 3xMBT/D355N UNC Light: experiment with UNC0638 in light SILAC media;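 on all read-outs here: proteins quantified with MaxQuant, requiring at least two unique peptides and quantification in both label directions, normalized to the mean of proteins from a digested loading control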

Relative to UNC0638 UNC Heavy [1] [log base 2] | Relative to UNC0638 UNC Light [1] [log base 2] | Relative to UNC0638 Average [1] [log base 2] | Molecule | 3xMBT/D355N UNC Heavy [2] [log base 2] | 3xMBT/D355N UNC Light [2] [log base 2]
0.08 | 0.25 | 0.17 | SFPQ (protein, UniProt P23246 1-707, looked up) Splicing factor, proline- and …: MSRDRFRSRGGGGGGFHRRGGGGGRGGLHDFRSPPPGMGLNQNRGPMGPGPGQSGPKPPIPPPPPHQQQQQPPPQQPPPQQPPPHQPPPHPQPHQQQQPPPPPQDSSKPVVAQGPGPAPGVGSAPPASSSAPPATPPTSGAPPGSGPGPTPTPPPAVTSAPPGAPPPTPPSSGVPTTPPQAGGPPPPPAAVPGPGPGPKQGPGPGGPKGGKMPGGPKPGGGPGLSTPGGHPKPPHRGGGEPRGGRQHHPPYHQQHHQGPPPGGPGGRSEEKISDSEGFKANLSLLRRPGEKTYTQRCRLFVGNLPADITEDEFKRLFAKYGEPGEVFINKGKGFGFIKLESRALAEIAKAELDDTPMRGRQLRVRFATHAAALSVRNLSPYVSNELLEEAFSQFGPIERAVVIVDDRGRSTGKGIVEFASKPAARKAFERCSEGVFLLTTTPRPVIVEPLEQLDDEDGLPEKLAQKNPMYQKERETPPRFAQHGTFEYEYSQRWKSLDEMEKQQREQVEKNMKDAKDKLESEMEDAYHEHQANLLRQDLMRRQEELRRMEELHNQEMQKRKEMQLRQEEERRRREEEMMIRQREMEEQMRRQREESYSRMGYMDPRERDMRMGGGGAMNMGDPYGSGGQKFPPLGGGGGIGYEANPGVPPATMSGSMMGSDMRTERFGQGGAGPVGGQGPRGMGPGTPAGYGRGREEYEGPNKKPRF | 3.19 | 3.86
0.09 | 0.24 | 0.16 | C14orf166 (protein, UniProt Q9Y224 1-244, looked up) RNA transcription, …: MFRRKLTALDYHNPAGFNCKDETEFRNFIVWLEDQKIRHYKIEDRGNLRNIHSSDWPKFFEKYLRDVNCPFKIQDRQEAIDWLLGLAVRLEYGDNAEKYKDLVPDNSKTADNATKNAEPLINLDVNNPDFKAGVMALANLLQIQRHDDYLVMLKAIRILVQERLTQDAVAKANQTKEGLPVALDKHILGFDTGDAVLNEAAQILRLLHIEELRELQTKINEAIVAVQAIIADPKTDHRLGKVGR | 3.09 | 3.13
0.21 | 0.12 | 0.16 | DDX17 (protein, UniProt Q92841 1-729, looked up) Probable ATP-dependent RNA …: MPTGFVAPILCVLLPSPTREAATVASATGDSASERESAAPAAAPTAEAPPPSVVTRPEPQALPSPAIRAPLPDLYPFGTMRGGGFGDRDRDRDRGGFGARGGGGLPPKKFGNPGERLRKKKWDLSELPKFEKNFYVEHPEVARLTPYEVDELRRKKEITVRGGDVCPKPVFAFHHANFPQYVMDVLMDQHFTEPTPIQCQGFPLALSGRDMVGIAQTGSGKTLAYLLPAIVHINHQPYLERGDGPICLVLAPTRELAQQVQQVADDYGKCSRLKSTCIYGGAPKGPQIRDLERGVEICIATPGRLIDFLESGKTNLRRCTYLVLDEADRMLDMGFEPQIRKIVDQIRPDRQTLMWSATWPKEVRQLAEDFLRDYTQINVGNLELSANHNILQIVDVCMESEKDHKLIQLMEEIMAEKENKTIIFVETKRRCDDLTRRMRRDGWPAMCIHGDKSQPERDWVLNEFRSGKAPILIATDVASRGLDVEDVKFVINYDYPNSSEDYVHRIGRTARSTNKGTAYTFFTPGNLKQARELIKVLEEANQAINPKLMQLVDHRGGGGGGGGRSRYRTTSSANNPNLMYQDECDRRLRGVKDGGRRDSASYRDRSETDRAGYANGSGYGSPNSAFGAQAGQYTYGQGTYGAAAYGTSSYTAQEYGAGTYGASSTTSTGRSSQSSSQQFSGIGRSGQQPQPLMSQQFAQPPGATNMIGYMGQTAYQYPPPPPPPPPSRK | 2.61 | 2.86
